Experimental data: the nanobody polyreactivity screen of Harvey et al. (2022)

test: yeast display, Sf9 membrane polyspecificity reagent, FACS + sequencing; frameworks hold sequencing errors
Outline: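 Genes from sorted yeast were amplified by colony PCR, read by MiSeq 2 × 250 sequencing and filtered on CDR length. These cells carried a synthetic nanobody library in Saccharomyces cerevisiae BJ5465 and were sorted by FACS into low and high (top ~1%) gates on anti-HA and streptavidin fluorescence. Polyreactivity is labelled according to the gate of origin.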

Sequence	polyreactivity (PSR sort gate)
QVQLVESGGGLVQAGGSLRLSCAASGRIFYANAMGWYRQAPGKERELVASISARGGSTYYADSVKGRFTISRDNAKNTVYLQMNSLKPEDTAVYYCAKRDTFKPYASLYDYWGQGTQVTVSS	high polyreactivity
QVQLVESGGGLVQAGGSLRLSCAASGRIFYANDMGWYRQAPGKERELVAAITNTVSTTYADSVKGRFTISRDNAKNTVYLQMNSLKPEDTAVYYCNADDPYVPKADMGYWGQGTQVTVSS	low polyreactivity
QVQLVESGGGLVQAGGSLRLSCAASGRIFYANDMGWYRQAPWKERELVAAITNTVSTTYADSVKGRFTISRDNAKNTVYLQMNSLKPEDTAVYYCNGDDPYVPKADMGYWGQGTQVTVSS	low polyreactivity
QVQLVESGGGLVQAGGSLRLSCAASGRIFYANTMGWYRQAPGKEWELVAAITSGGSTNYADSVKGRFTISRDNAKNTVYGQKNSLKPEDTAVYYCATKQRRGYWGYITAYARYYWGQGTQVTVSS	high polyreactivity
QVQLVESGGGLVQAGGSLRLSCAASGRIFYAYAMGWYRKAPGKERELVAAITETGGNTYYADSVKGRFTISRDNAKNTVYLQMNSLKPEDTAVYYCARKGRRTHHYGLYSSSVYYWGQGTQVTVSS	low polyreactivity
QVQLVESGGGLVQAGGSLRLSCAASGRIFYAYAMGWYRPAPGNERELVAAITISASSTYYADSVKGRFTISRDNAKNTVYLQMNSLKPEDTAVSYCAAAYRRPWWYSYRYGYWGQGTQVTVSS	high polyreactivity
QVQLVESGGGLVQAGGSLRLSCAASGRIFYAYAMGWYRQAPGKERELVARISYSGGNTYYADSVKGRFTISRDNAKNTVYLQMNSQKPEDTAVYYCNTDYRARFGYWGQGTQVTVSS	high polyreactivity
QVQLVESGGGLVQAGGSLRLSCAASGRIFYAYAMGWYRQAPGKERELVATITGIGGSTYADSVKGRFTISRDNAKNTVNLQMNSLKPEDTAVYYCNAERGVYWGRYPYKYDYWGQGTQVTVSS	low polyreactivity
QVQLVESGGGLVQAGGSLRLSCAASGRIFYAYAMGWYRQAPGKERELVATITYGGGSTYYADSVKGRFTISRDNAKNTVDLQMNSLKPEATAVYYCAADRTGSTLYTIRYYYWGQGTQVTVSS	low polyreactivity
QVQLVESGGGLVQAGGSLRLSCAASGRIFYDNAMGWYSQAPGKERELVAAIRIGGSTNYADSVKGRFTISRDNAKNTVYLLMNSLKPEDTAVYYCNRSDNPDSYYPDSVWGDSWGQGTQVTVSS	low polyreactivity
QVQLVESGGGLVQAGGSLRLSCAASGRIFYDYDMGWYRQAPGKERELVAAISYGGGTTYYADSVKGRFTISRDNAKNTVYLQMTSLKPEDTAVYYCAAEYASGSYDEYDYWGQGTQVTVSS	low polyreactivity
QVQLVESGGGLVQAGGSLRLSCAASGRIFYEYAMGWYRQAPGKEREVVAAISNSGGSTSYADSVKGRFSISRDNATNTDYLQMNSLQPEDTAVSYCAAGSHSGRAYYYWGEGTQVTVSS	high polyreactivity
QVQLVESGGGLVQAGGSLRLSCAASGRIFYFNAMGWYRQAPGKERELVAAISGSGGDTYYADSVKGRFTISRDNAKNTVYLQMNSLKPEDTAVYYCAAEVYTWGQGTQVTVSS	low polyreactivity
QVQLVESGGGLVQAGGSLRLSCAASGRIFYFNAMGWYRQAPGKERELVADMSSGGRTNYADSVKGRFTISRDNEKNSVYLQMNSLKPEDSAVYYWIAEPYTSSVGYRGYDFDDWGQGTQVTVSS	low polyreactivity
QVQLVESGGGLVQAGGSLRLSCAASGRIFYFNTMGWSRQAPGKERELVAAISKNGGSTYYADSVKGRFTISRDTAKNTVYLQMNSLKPEDTAVYYCAKTRRLSPYDYWGQGTQVTVSS	high polyreactivity
QVQLVESGGGLVQAGGSLRLSCAASGRIFYFYAMGWYRQAPGKERELVAAINIGGSTNYADSVKGRFTISRDNAKNTVYLQMNSLKPEDTAVYYCNAEAYSRSDYYRYDYWGQGTQVTVSS	low polyreactivity
QVQLVESGGGLVQAGGSLRLSCAASGRIFYGNAMGWYRQAPGKERQLVAAITDGGSTNYADSVKGRFTISRDNAKNTVYLQMNSLKPEDTAVYYCAKDYRGSYYKYDYWGQGTQVTVSS	low polyreactivity
QVQLVESGGGLVQAGGSLRLSCAASGRIFYGYAMGWYRQAPGKERELVAAITRSGGSTYYADSVKGRFTISRDTAKNTVYLQMNSLKPEDTAVYYCNAQWGYRTSFDYGYWGQGTQVTVSS	low polyreactivity
QVQLVESGGGLVQAGGSLRLSCAASGRIFYGYAMGWYRQAPGKERELVAAITSGSRTNYADSVKGRFTISRDNAKNTVYLQMNSLKPEDTAVYYCHSRYGSYLYSLVHNTRYDYWGQGTQVTVSS	low polyreactivity
QVQLVESGGGLVQAGGSLRLSCAASGRIFYGYAMGWYRQAPGKERELVAAITVSGGDTYYADSVKGRFTISRDNAKNTVYLQMNSLKPEDTAVYYCAAKADKRLDYWGQGTQVTVSS	low polyreactivity

Sequence	polyreactivity (PSR sort gate)
QVQLVESGGGLVQAGGSLRLSCAASGRIFYGYARGWYRQAPGKDRELVAAIRWYGGNTYYADSVKGRFTISRDNAKNTVYLQMNSLKPEDTAVYYCNARTEYASSRYYYWGQGTQVTVSS	high polyreactivity
QVQLVESGGGLVQAGGSLRLSCAASGRIFYGYTMGWYRQAPGKERELVASIDYSTGRTYYADSVKGRFTISRDNAKNTVYLQMNSLKPEDTAVYYCNADPNYSLLRYDYWGQGTQVTVSS	high polyreactivity
QVQLVESGGGLVQAGGSLRLSCAASGRIFYGYTMGWYRQAPGKERELVASITIRGSRTYYADSVKGRFTISRDNAKNTVYLQMNSLKPEDTAVYYCAADFVPARTVHRYDYWGQGTQVTVSS	low polyreactivity
QVQLVESGGGLVQAGGSLRLSCAASGRIFYGYVMGWYRQAPGKERELVAAISWSAGRTYYADSVKGRFTISRDNAKNTVYLQMNSLKPEDTAVYYCAARYFSLYVWSTFEYWGQGTQVTVSS	high polyreactivity
QVQLVESGGGLVQAGGSLRLSCAASGRIFYHNTMGWYRQAPGKERELVAAITTSGSTYYADSVKGRFTISRDNAKNSVYLQMNSLKPEDTSVYYCAARALRWFNYWGQGTQVTVSS	high polyreactivity
QVQLVESGGGLVQAGGSLRLSCAASGRIFYHYAMGGYRPAPGKERELVAAISSSTGRSYYADSVKGRFTFSRDNAKNTVYLQMNSLKPEDSAVYYCATTPGYYGYISPRIRLYDYWGQGTQVTVSS	high polyreactivity
QVQLVESGGGLVQAGGSLRLSCAASGRIFYHYAMGWYRQAPGKERELVAAITWSGVSTYYADSVKGRFTISRDNAKNTVYLQMNSLKPDDTAVYYCATSSRYGVRRYSRGSWGQGSQVTVSS	high polyreactivity
QVQLVESGGGLVQAGGSLRLSCAASGRIFYHYAMGWYRQAPGKERELVAVIRSTGSTNYADSVKGRFTISRDNAKNTVYFQLKSLIPEDTAVYYCAVRRATFSYWYFNGGYWGQGTQVTVSS	high polyreactivity
QVQLVESGGGLVQAGGSLRLSCAASGRIFYINALGWYRQAPGKERELVASITGSGDSTYYADSVKGRFTISRDNAKNTVELQMNSLKPEDTAVYYCAARTYYYYGPRYYYWGQGTQVTVSS	low polyreactivity
QVQLVESGGGLVQAGGSLRLSCAASGRIFYIYAMGWYRQAPGKERELVASITSSGTSTYADSVKGRFTISRDNAKNTVYLQMNSLKPEDTAVYYCNARGYPKSWRYSRGYEYWGQGTQVTVSS	low polyreactivity
QVQLVESGGGLVQAGGSLRLSCAASGRIFYKYAKGWYRQAPGKERELVAAITTSGGSTYYADSVKGRFTISRDNAKNTVYLQMKSLKPEDTAVYYCARDLNGRFLTTGRGMDYWGQGTQVTVSS	high polyreactivity
QVQLVESGGGLVQAGGSLRLSCAASGRIFYKYAMGWYRPAPGKERELVAAISWSGGRTYYADSVKGRFTISRDNAKNTVYLQMNSLKPEDTAVYYCNAVYAGFLRVRYDYWGQGTQVTVSS	high polyreactivity
QVQLVESGGGLVQAGGSLRLSCAASGRIFYKYAMGWYRQAPGKERELVAAISWSGGRTYYADSVKGRFTISRDNAKNTVYLQMNSLKPEDTAVYYCAAVRGGASGGYDYWGQGTQVTVSS	high polyreactivity
QVQLVESGGGLVQAGGSLRLSCAASGRIFYKYVMGWYRQAPGNERELVATITSGGSTYYADSVKGRFTISRDNAKNTVYLQMNSLKPEDTAVYYCAARKYYSRAYDYWGQGTQVTVSS	high polyreactivity
QVQLVESGGGLVQAGGSLRLSCAASGRIFYLNAMGWYRQAPGKERELVAGITNSTTGTYYADSVKGRFTISRDNAKNTVYLQMNCLKPEDTAVYYCITDVAYEEPVETYDYWGQGTQVTVSS	low polyreactivity
QVQLVESGGGLVQAGGSLRLSCAASGRIFYNVMGWYRQAPGKERELVAAISSSGGRTYYADSVKGRFTISRDNAKNTVYLQMNSLKPEDTAVYYCAARAWYYGYWGQGTQVTVSS	high polyreactivity
QVQLVESGGGLVQAGGSLRLSCAASGRIFYNYAMGWYRQAPGKERELLAAISWSGTSTYYADSVKGRFTISRDNAKNTVYLQMNSLKPEDTAVYYCATDRTYTARGYYLEYHRYDYRGQGTQVTVSS	low polyreactivity
QVQLVESGGGLVQAGGSLRLSCAASGRIFYNYAMGWYRQAPGKERELVAAISGSGGSTYYADSVKGRFTISRDNAKKTVYLQMNSLKPEDTAVYYCSTSGPQYYSRNFDYWGQGTQVTVSS	low polyreactivity
QVQLVESGGGLVQAGGSLRLSCAASGRIFYNYAMGWYRQAPGKERELVAAISGSGGSTYYADSVKGRFTISRDNAKNTVYLQMNSLKPEDTAVYYCAKDYRWDRKFDYWGQGTQVTVSS	low polyreactivity
QVQLVESGGGLVQAGGSLRLSCAASGRIFYNYAMGWYRQAPGKERELVAAISGSGGSTYYADSVKGRFTISRDNAKNTVYLQMNSLKPEDTAVYYCNARDVVYLITPYFLVYVNLDYWGQGTQVTVSS	low polyreactivity
